Data as given in patent publication US20140200179A1.
“And” between values parts separate entries of the source, which are not always exact repeats. Equal entries are not always repeated.

Target: Fz-CRD (biotinylated Fz5- and Fz8-CRD)
Assay: SPR, biotinylated Fz5- and Fz8-CRD on the chip, mini-Xwnt8 flowed over at several concentrations

Kd: 1000 nM and 2000 nM
Substance: mini-XWnt8 (amino acid residues 248-338) (from UniProt P28026) (ligand)
